Results as given in patent publication US20230270857A1.

Target: CD3 on ex vivo expanded human T cells (Homo sapiens) (UniProt P07766)
Assay: flow cytometry referenced to quantum beads

| Substance | molar amount of BsAb bound per T cell (zeptomoles per T cell) |
| --- | --- |
| GD2-BsAb (hu3F8-BsAb, anti-GD2 hu3F8 x anti-CD3 huOKT3, IgG-[L]-scFv format) (bispecific antibody) | 1 to 35 |
| HER2-BsAb (trastuzumab x huOKT3, IgG-[L]-scFv format) (bispecific antibody) | 1 to 35 |
